One molecule from patent US20160002322A1 (INDUSTRY ACADEMIC COOPERATION FOUNDATION HALLYM UNIVERSITY, published 2016) can be followed below.

Test [1] deals with mouse TM4SF5 peptide (mTM4SF5) (mouse). Nature of the test: SPR (Biacore T100, 25 C), biotinylated mTM4SF5 peptide captured on a streptavidin-coated CM4 chip, antibody injected at 2 to 32 nM. On the procedure:
(§1) Affinity of anti-hTM4SF5 monoclonal antibody binding to human TM4SF5 peptide (hTM4SF5) and mouse TM4SF5 peptide (mTM4SF5) was measured using Biacore T100 (Biacore) at 25° C. Biotinylated peptides were captured on individual flow cell surface of a CM4 sensor chip coated with streptoavidin. Biotin served as a negative control. Anti-TM4SF5 monoclonal antibody at concentrations ranging from 2 to 32 nM was injected at a flow rate of […]. Data were evaluated using Biacore Bia evaluation software (version 3.0).

In test [2] the target is T1, hTM4SF5 peptide (138-NRTLWDRCEAPPRV-151) (human, also: biotinylated for SPR capture (position not given here)).
T1 construct: also called human TM4SF5 peptide
T1 peptide: NRTLWDRCEAPPRV
Nature of the test: SPR (Biacore T100, 25 C), biotinylated hTM4SF5 peptide captured on a streptavidin-coated CM4 chip, antibody injected at 2 to 32 nM. On the procedure: as §1

Test [3] deals with mouse TM4SF5 peptide (mTM4SF5) (mouse). Nature of the test: SPR, Biacore T100, 25 C; biotinylated peptide captured on streptavidin-coated CM4 chip, antibody injected at 2-32 nM. On the procedure:
as §1

Test [4] has as its target T1, hTM4SF5 peptide (138-NRTLWDRCEAPPRV-151). Nature of the test: SPR, Biacore T100, 25 C; biotinylated peptide captured on streptavidin-coated CM4 chip, antibody injected at 2-32 nM; human TM4SF5 (not mouse); peptide on the chip per methods. On the procedure:
as §1

No end group written: not given here.

B1: anti-TM4SF5 monoclonal antibody 2D4-18 (antibody, V domains shown)
VH: GDLVKPGGSLKLSCAASGFTFSSYGMSWVRQTPDKRLEWVATISSGGGYTYYPDSVKGRFTISRDNAKNTLYLQMRSLKSEDTAMYYCARHEGFTTYYFDYWGQGTTLTVSS
VL: LSLPVSLGDQASISCRSSQSILHSSGNTYLEWYLQKPGQSPKLLIYKVSNRFSGVPDRFSGSGSGTDFTLKISRVEAEDLGVYYCFQGSHVPFTFGSGTKLEIKR
notes: DyLight 750-labelled in the biodistribution experiment; also called TM4SF5-targeted mAb (2D4-18); anti-hTM4SF5 monoclonal antibody
For B1, the Kd is 1.87 nM in test [1], 2.74 nM in test [2], ~2 nM in test [3] and ~2 nM in test [4].
